Test results as given in paper doi:10.1101/751974 (bioRxiv, 2019).

How the values were obtained:
[1] = target: MBP-MCM8-9 complex, amylose bead-bound (human, UniProt Q9NXL9-1;Q9UJA3-1); experiment: pull-down
[2] = target: recombinant MCM8-9 complex, purified (human, UniProt Q9NXL9-1;Q9UJA3-1); experiment: native gel or EMSA
Sequence of recombinant MCM8-9 complex, purified (Q9NXL9 whole entry, chain 1 of 2): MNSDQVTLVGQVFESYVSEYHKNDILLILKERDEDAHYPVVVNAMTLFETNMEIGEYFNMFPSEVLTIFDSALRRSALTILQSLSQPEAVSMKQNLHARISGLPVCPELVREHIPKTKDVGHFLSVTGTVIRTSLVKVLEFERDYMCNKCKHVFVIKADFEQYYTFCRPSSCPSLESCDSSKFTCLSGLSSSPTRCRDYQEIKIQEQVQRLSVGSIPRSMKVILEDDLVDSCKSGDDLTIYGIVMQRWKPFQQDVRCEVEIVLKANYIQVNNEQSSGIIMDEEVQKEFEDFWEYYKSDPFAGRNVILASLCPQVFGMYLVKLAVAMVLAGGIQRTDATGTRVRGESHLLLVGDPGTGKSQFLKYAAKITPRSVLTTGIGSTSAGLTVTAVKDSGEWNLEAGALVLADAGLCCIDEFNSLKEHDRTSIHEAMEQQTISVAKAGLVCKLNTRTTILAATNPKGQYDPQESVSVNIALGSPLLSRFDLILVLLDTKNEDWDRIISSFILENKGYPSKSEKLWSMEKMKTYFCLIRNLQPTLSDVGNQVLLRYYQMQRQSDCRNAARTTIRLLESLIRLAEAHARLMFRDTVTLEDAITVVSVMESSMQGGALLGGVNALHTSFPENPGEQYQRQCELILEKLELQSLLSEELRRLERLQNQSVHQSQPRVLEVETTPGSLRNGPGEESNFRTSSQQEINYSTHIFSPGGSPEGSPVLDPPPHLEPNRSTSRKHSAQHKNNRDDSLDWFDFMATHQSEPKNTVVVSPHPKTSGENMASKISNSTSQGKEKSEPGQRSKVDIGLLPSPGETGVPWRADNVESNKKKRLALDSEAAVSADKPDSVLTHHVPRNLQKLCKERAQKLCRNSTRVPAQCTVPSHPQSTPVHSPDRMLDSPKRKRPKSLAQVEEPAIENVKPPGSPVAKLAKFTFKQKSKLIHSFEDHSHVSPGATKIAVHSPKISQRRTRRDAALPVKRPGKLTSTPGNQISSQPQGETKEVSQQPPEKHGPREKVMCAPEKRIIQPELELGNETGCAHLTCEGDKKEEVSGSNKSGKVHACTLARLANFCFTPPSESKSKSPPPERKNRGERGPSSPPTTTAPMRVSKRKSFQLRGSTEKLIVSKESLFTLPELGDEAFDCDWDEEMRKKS
Sequence of recombinant MCM8-9 complex, purified (Q9UJA3 whole entry, chain 2 of 2): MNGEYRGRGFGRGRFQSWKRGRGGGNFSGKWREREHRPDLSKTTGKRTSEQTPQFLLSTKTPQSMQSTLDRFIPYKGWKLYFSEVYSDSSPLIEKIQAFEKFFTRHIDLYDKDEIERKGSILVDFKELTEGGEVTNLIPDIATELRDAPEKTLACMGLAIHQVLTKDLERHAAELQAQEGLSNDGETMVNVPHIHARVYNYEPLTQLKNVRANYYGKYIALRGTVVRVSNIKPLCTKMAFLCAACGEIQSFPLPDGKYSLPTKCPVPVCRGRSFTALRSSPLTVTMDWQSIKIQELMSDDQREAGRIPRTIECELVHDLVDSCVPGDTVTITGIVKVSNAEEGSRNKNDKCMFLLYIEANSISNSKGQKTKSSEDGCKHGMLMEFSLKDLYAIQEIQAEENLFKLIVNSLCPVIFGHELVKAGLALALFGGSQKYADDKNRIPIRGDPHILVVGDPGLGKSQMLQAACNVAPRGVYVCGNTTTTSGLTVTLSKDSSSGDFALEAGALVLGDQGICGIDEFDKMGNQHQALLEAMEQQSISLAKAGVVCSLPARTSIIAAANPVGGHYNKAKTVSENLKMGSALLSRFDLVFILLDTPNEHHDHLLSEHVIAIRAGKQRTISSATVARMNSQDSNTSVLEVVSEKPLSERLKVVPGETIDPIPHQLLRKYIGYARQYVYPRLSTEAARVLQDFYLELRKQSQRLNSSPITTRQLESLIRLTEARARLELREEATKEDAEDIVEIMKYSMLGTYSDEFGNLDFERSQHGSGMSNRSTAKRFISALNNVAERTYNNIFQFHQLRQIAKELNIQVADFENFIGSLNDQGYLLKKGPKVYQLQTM

Sequence of MBP-MCM8-9 complex, amylose bead-bound (Q9NXL9 whole entry, chain 1 of 2): as the sequence (Q9NXL9 whole entry, chain 1 of 2) above
Sequence of MBP-MCM8-9 complex, amylose bead-bound (Q9UJA3 whole entry, chain 2 of 2): as the sequence (Q9UJA3 whole entry, chain 2 of 2) above

binding result [1]: binds
binding result [2]: binds
B1: MCM8IP-FLAG WT (natural protein)
chain: MACSLQKLFAVEEEFEDEDFLSAVEDAENRFTGSLPVNAGRLRPVSSRPQETVQAQSSRLLLLHPTAPSEALGLPDLDLCLPASSTPSADSRPSCIGAAPLRPVSTSSSWIGNQRRVTVTEVLRETARPQSSALHPLLTFESQQQQVGGFEGPEQDEFDKVLASMELEEPGMELECGVSSEAIPILPAQQREGSVLAKKARVVDLSGSCQKGPVPAIHKAGIMSAQDESLDPVIQCRTPRPPLRPGAVGHLPVPTALTVPTQQLHWEVCPQRSPVQALQPLQAARGTIQSSPQNRFPCQPFQSPSSWLSGKAHLPRPRTPNSSCSTPSRTSSGLFPRIPLQPQAPVSSIGSPVGTPKGPQGALQTPIVTNHLVQLVTAASRTPQQPTHPSTRAKTRRFPGPAGILPHQQSGRSLEDIMVSAPQTPTHGALAKFQTEIVASSQASVEEDFGRGPWLTMKSTLGLDERDPSCFLCTYSIVMVLRKAALKQLPRNKVPNMAVMIKSLTRSTMDASVVFKDPTGEMQGTVHRLLLETCQNELKPGSVLLLKQIGVFSPSLRNHYLNVTPNNLVHIYSPDSGDGSFLKPSQPFPKDSGSFQHDVAAKPEEGFRTAQNLEAEASPEEELPEADDLDGLLSELPEDFFCGTSS
